# Assay results published in patent publication US20190248902A1 (published 2019).
# Changes are numbered by the printed parent chain.
# T1: recombinant, soluble human ASGR-1 (human, UniProt P07306 62-291)
# T1 construct: biotinylated in the binning assay; also called soluble huASGR-1; Soluble ASGR-1 (Amgen)
# T1 sequence: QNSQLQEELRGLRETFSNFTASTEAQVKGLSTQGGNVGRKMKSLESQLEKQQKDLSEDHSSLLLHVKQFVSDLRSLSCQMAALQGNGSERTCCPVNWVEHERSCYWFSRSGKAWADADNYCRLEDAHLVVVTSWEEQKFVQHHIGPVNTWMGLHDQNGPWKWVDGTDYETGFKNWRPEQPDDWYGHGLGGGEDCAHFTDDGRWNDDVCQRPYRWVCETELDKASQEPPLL
# T2: human ASGR-1 (human, UniProt P07306 1-291)
# T2 construct: Stably expressed on CHO-S cells (CHO-S:huASGR-1); The method text says human or mouse ASGR-1 cells were used; also called huASGR-1; hASGR-1
# T2 sequence: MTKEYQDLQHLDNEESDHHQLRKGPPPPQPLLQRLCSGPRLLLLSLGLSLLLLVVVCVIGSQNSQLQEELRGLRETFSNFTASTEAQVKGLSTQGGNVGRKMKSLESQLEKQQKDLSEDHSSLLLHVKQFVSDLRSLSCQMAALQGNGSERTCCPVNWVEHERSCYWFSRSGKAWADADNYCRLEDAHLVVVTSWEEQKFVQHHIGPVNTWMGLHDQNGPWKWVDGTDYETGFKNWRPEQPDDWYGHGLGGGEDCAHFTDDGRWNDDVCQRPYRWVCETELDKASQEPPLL
# B1: 194C10 (antibody, V domains shown)
# VH: QVQLQQWGAGLLKPSETLSLTCAVSGGSFRYYYWSWIRQPPGKGLEWFGEINHSGSTNYNPSLKSRVTISIDTSKNQFSLKLRSVTAADTAVYYCARDYGAFDIWGQGTMVTVSS
# VL: EIVLTQSPGTLSLSPGERATLSCRASPSVNSGYLAWYQQKPGQTPRLLIFGASSRATGIPDRFSASGSGADFTLTISRLEPEDFAVYFCQQYESSPWTFGQGTKVEIK
# notes: hybridoma mAb
# B2: 196F4 (antibody, V domains shown)
# VH: EVQLLESGGGLVQPGGSLRFSCAASGFTFSSCAMTWVRQAPGKGLEWVSAISGSGGSTYYADSVKGRFTISRDNSKNTLYLQMNSLRAEDTAVYYCAKVGGLTGSYYYYGMDVWGQGTTVTVSS
# VL: DFQMIQSPSSLSASVGDRVTITCRASQRIHSYLNWYQQKPGKAPKLLIYTASSLQGGVPSRFSGSGSGTDFTLTISSLQPEDFATYYCQQSYGSPLTFGGGTKVEIK
# notes: hybridoma mAb
# B3: 52D10 (antibody, V domains shown)
# VH: QVQLVESGGGVVQPGRSLRLSCAASGFTFSSYGMHWVRQAPGKGLEWVALIWYDGSNKYHADSVKGRFTISRDNSKNTLYLQMNSLRAEDTAVYYCARRYSSSWSGGMDVWGQGTTVTVSS
# VL: DVMMTQIPLSLSVTPGQPASISCKSSQSLLHSEGKTYLYWYLQKPGQPPQLLIFEVSNRVSGVPDRFSGRGSGTDFTLKISRVEAEDVGVYYCMQSIQYPITFGQGTRLEIK
# notes: hybridoma mAb
# B4: 202A3 (antibody, V domains shown)
# VH: QVQLEQSGAEVKKPGASVKVSCKASGYTFTSYDINWVRQATGQGLEWLGWMNPKRGNTGYAQKFQGRVTMTRNTSISTAHMELSSLRSEDTAVYYCARGRYSREDYYYYYDMDVWGQGTTVTVSS
# VL: DIQMSQSPSSLSASVGDRVTITCRASQGIRNDLGWYQQKPGKAPKRLICAASRLQSGVPSRFSGSGSGTEFTLTISSLQPEDFAIYYCLQHHDYPFTFGPGTKVDIK
# notes: hybridoma mAb
# B5: 198D2 (antibody, V domains shown)
# VH: QVQLVESGGGVVQPGRSLRLSCAASGFTFRSYGMHWVRQAPGKGLEWVAVIIYDGSYKYYADSVKGRFTISRDNSKNTLYLQMNSLRAEDTAVYYCARTYSGGMDVWGQGTTVTVSS
# VL: QSVLTQPPSVSAAPGQKVTISCSGSSSNIGSNYVSWYQQLPGTAPKVLIYDNNKRPSGIPDRFSGSKSGTSATLGITGLQTGDEADYYCGTWDSRLNVGVFGGGTKLTVL
# notes: hybridoma mAb
# B6: 176H4 (antibody, V domains shown)
# VH: QVQLVESGGGVVQPGRSLRLSCAASGFTFSSYGMHWVRQAPGKGLEWVAIIWYDGSYKYYADSVKGRFTISRDNSKNTLYLQMSSLRAEDTAVYYCARDAHDFWSGYFAYWGQGALVTVSS
# VL: DIVMTQTPLSLSVTPGQPASISCKSSQSLLHGDGKTYLYWYLQKPGQPPQLLIYEVSNRFSGVPDRFSGSGSGTDFTLKISRVEAEDVGIYYCMQSIQIPWTFGQGTRVEIK
# notes: hybridoma mAb
# B7: 25A4 (antibody, V domains shown)
# VH: QVLLVQSGAEVKRPGASVKVSCKASGYTFTNYDINWVRQATGQGLEWMGWMYPNSGNTGYAQKFQGRVTMTRNTSISTAYMELSSLRSEDTAVYYCASSSGWYYFDYWGQGTLVTVSS
# VL: DIVMTQFPDSLAVSLGERATIKCKSSQSVLYSSHNNNYLAWYQQKPGQPPKLLLYWASTRESGVPDRFSGSGSGTEFTLTISSLEAEDVAVYYCQQYYSTPPTFGQGTKVEIK
# B8: 26C4 (antibody, V domains shown)
# VH: B7 VH with L3Q, R13K, T41S, Y52N, K63R, S77N
# VL: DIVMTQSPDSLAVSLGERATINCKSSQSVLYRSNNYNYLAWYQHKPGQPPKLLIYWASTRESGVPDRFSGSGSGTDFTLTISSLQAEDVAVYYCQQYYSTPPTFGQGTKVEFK
# B9: 22G5 (antibody, V domains shown)
# VH: EVQLLESGGGLVQPGGSLRLSCAASGFTFSSYAMNWVRQAPGMGLEWVSVISRSGGYTYYADSVKGRFTISRDNSKNTLYLQMNSLRAEDTAVYYCASRLAVAGSEAFDIWGQGTLVTVSS
# VL: DIQMTQSPSSLSASVGDRVTITCRASQNISSYLNWYQQKQGKAPKLLIYAASSLQNGVPSRFSGRGSGTDFTLTISSLQPEDFATYYCQQSYRTPLFTFGPGTKVDFK
# B10: 7E11 (antibody, V domains shown)
# VH: QVQLVESGGGVVQPGRSLRLSCAASGFTFSSFGMHWVRQAPGKGLEWVAIIWHDGSNKYYADSVKGRFTISRDNSNNTLYLQMSSLRAEDTAVYYCARDLSMGGMDVWGQGTTVTVSS
# VL: DIQMTQSPSSLSASVGDRVTIACRASQNIISYLNWYQQKPGKAPKFLIYTASSLQSGVPSRFSGSGSGTDFTLTISSLQPEDFAIYYCQQTYSTPLTFGGGTKVEIK
# B11: 5E5 (antibody, V domains shown)
# VH: QVQLVESGGGVVQPGRSLRLSCAASGFTFSNYVMHWVRQAPGKGLEWVAVIWYDGSNKYYADSVKGRFTISRDNSKNTLYLQMNSLRAEDTAVYYCTREVYSSGWYDYGMDVWGQGTTVTVSS
# VL: B4 VL with S5T, C49Y, R53S, I85T, H92Y, D93S, F96R, P100Q, D105E, I106V
# B12: 7F4 (antibody, V domains shown)
# VH: QLQLQESGPGLVKPSETLSLTCTVSGGSISRSSYYWGWIRQPPGKGLEWIGNIYYSGATYYNPSLKSRVTISVDTSTNQFSLKLSSVTAADTAVYYCARHSGSWSLDYWGQGTLVTVSS
# VL: B4 VL with S5T, A25T, C49Y, R53N, I85T, H92S, D93A, F96L, P100G, D105E
# B13: 7G4 (antibody, V domains shown)
# VH: B11 VH with S30N, N84T, T97A, V100K, G104N
# VL: DIQMTQSPSSLSASVGDRVTITCRASQGIRNDLGWYQQRPGKAPKRLIYAASSLQSGVPSRFSGSGSGTEFTLTISSLQPEDSATYYCLHQYSYPRTFGQGTKVEIK
# B14: 6G7 (antibody, V domains shown)
# VH: QVQLVESGGGVVQPGRSLRLSCAASGFTFSSYGMHWVRQTPGKGLEWVAIISYVGKNKYYADSVKGRFTISRDNSKNTLYLQMNSLRAEDTAVYYCARRGNSYGGYGMDVWGQGTTVTVSS
# VL: DIQMTQSPSSRSASVGDRVTITCQASQDISNYLNWCQQKPGKALKLLIYDASTLETGVPSRFSGSGSGTDFTFTISSVQPEDIATYYCQQYDNVPITFGQGTRLEIK
# B15: 12D2 (antibody, V domains shown)
# VH: EVQLVESGGGLVKPGGSLRLSCAASGFTFSSYSMNWVRQAPGKGLEWVSSISSSSSYIYYADSVKGRFTISRDNAKNSLYLQMNSLRAEDTAVYYCARLGDYWGQGTLVAVSS
# VL: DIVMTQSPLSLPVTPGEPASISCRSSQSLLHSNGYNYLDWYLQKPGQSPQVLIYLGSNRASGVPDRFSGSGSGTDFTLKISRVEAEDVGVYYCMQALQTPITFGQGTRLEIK
# Target: T1, recombinant, soluble human ASGR-1
# Test: Octet BLI dissociation, pH 5.6 plus calcium
# In short: (§1)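 Antibodies were captured on anti-human Fc biosensors, and soluble ASGR-1 (6 ug/ml) was associated for 2 min in Tris buffer containing 1 mM CaCl2 at pH 7.4, followed by 10 min dissociation under each test condition. The signal at the end of association was set as 100%. Percent ASGR-1 still bound after 1 min of dissociation was compared with the pH 7.4 plus calcium control, and >10% extra dissociation was scored as sensitive.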
row,% Change Compared to pH 7.4 + Calcium,Binder
1,10%,B1
2,-5%,B2
3,3%,B3
4,-22%,B4
5,-30%,B5
6,-4%,B6

# Target: T1, recombinant, soluble human ASGR-1
# Test: Octet BLI dissociation, pH 5.6 minus calcium
# In short: as §1
row,% Change Compared to pH 7.4 + Calcium,Binder
1,16%,B1
2,-6%,B2
3,45%,B3
4,-23%,B4
5,-28%,B5
6,26%,B6

# Target: T1, recombinant, soluble human ASGR-1
# Test: Octet BLI dissociation, pH 7.4 minus calcium
# In short: as §1
row,% Change Compared to pH 7.4 + Calcium,Binder
1,2%,B1
2,-8%,B2
3,21%,B3
4,-21%,B4
5,-8%,B5
6,2%,B6

# Target: T2, human ASGR-1
# Test: FACS ligand blocking on CHO-S ASGR-1 cells; competitor biotinylated asialofetuin
# Protocol: (§2) All ASGR-1 antibodies that bound either human or mouse ASGR-1 stable CHO—S cells were then tested for ligand blocking using both a protein ligand and a synthetic sugar ligand. The method in brief is as follows: first, 20 ul of either CHO-Shuman or mouse ASGR-1 cells were added to wells of a 384 well plate (30 k cells/well) followed by spin and discarding the supernatant. Second, 10 ul of the antibodies (either purified from hybridoma supernatants or made recombinantly) were added in duplicate to the cells in a dilution series (200 nM top concentration, 1:2 serial dilution, 11 point curve) and were incubated for 30 min at 4 C. […] After 30 min incubation at 4C, the plate was spun and washed twice with FACS buffer+1 mM CaCl2 followed by the detection streptavidin-AF647 at 1:1000 dilution. After 30 min at 4C, the cells were spun and washed once and then 60 ul PI added at 1:1000 dilution and the plates delivered to a core flow cytometry facility. The plates were read and processed similarly to the cell binding method except the signal now represents an inhibition curve and typically decreases a function of increasing antibody concentration. IC50 nM potency and % Inhibition were reported. […] Differences in the ability of antibodies to block these two ligands could occur as a result of differences in, for example, avidity stemming from differences in the number and/or orientation of the ASGR binding terminal sugar residues of each ligand, steric hindrance between antibody and each ligand, and/or changes in the conformation of ASGR induced by antibody binding that selectively alters the binding of each ligand.
% Inhibition,IC50,Binder
99%,11 nM,B7
99%,6.6 nM,B8
99%,–,B9
99%,13 nM,B10
95%,–,B11
99%,2.6 nM,B12
96%,14 nM,B13
99%,11 nM,B14
20%,10 nM,B15

# Target: T2, human ASGR-1
# Test: FACS ligand blocking on CHO-S ASGR-1 cells; labelled ligand biotin-GalNAc-PAA (synthetic sugar)
# Protocol: as §2
% Inhibition,IC50,Binder
77%,40 nM,B7
83%,36 nM,B8
93%,–,B9
37%,40 nM,B10
0%,–,B11
30%,0.24 nM,B12
-30%,20 nM,B13
0%,> 200 nM,B14
10%,2.1 nM,B15
